Positions count from the first letter of the chain named.

The target in series [1] is FhuA7/10-1 with histidine tag. As to the kind of experiment: cell-based or functional assay.
Series [2] relates to wild type OprD (FadL-OprD with C-terminal two glycines and 6 histidines).
Series [3] has as its target T1, wild type OprD (FadL-OprD with C-terminal two glycines and 6 histidines).
T1 chain: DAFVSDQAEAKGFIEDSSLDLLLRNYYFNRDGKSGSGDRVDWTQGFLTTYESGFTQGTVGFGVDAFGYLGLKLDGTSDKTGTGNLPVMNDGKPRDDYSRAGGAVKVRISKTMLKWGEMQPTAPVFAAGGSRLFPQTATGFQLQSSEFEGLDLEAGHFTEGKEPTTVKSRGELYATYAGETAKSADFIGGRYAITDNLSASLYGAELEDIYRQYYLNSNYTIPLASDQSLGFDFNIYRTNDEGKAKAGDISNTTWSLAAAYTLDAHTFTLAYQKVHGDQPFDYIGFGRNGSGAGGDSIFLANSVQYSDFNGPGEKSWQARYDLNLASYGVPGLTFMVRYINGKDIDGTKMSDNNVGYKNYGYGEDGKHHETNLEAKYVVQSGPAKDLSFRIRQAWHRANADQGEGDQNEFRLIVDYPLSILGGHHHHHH

The target in series [4] is T2, OprD mutant L8 mmp7turk#3.
T2 chain: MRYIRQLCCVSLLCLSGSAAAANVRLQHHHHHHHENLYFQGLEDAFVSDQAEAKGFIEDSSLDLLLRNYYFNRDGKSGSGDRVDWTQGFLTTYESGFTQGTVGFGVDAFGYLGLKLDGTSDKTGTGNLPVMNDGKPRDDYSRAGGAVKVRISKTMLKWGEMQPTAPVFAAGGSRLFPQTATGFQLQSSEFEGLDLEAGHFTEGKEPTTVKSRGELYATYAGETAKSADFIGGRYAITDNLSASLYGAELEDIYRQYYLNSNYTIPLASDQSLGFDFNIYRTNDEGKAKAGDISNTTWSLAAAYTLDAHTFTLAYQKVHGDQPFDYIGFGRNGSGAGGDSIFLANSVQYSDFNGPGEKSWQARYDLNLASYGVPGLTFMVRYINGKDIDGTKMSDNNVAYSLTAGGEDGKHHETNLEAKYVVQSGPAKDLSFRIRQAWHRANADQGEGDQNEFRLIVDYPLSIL

Series [5] deals with T3, FhuA7/10-1 with histidine tag.
T3 chain: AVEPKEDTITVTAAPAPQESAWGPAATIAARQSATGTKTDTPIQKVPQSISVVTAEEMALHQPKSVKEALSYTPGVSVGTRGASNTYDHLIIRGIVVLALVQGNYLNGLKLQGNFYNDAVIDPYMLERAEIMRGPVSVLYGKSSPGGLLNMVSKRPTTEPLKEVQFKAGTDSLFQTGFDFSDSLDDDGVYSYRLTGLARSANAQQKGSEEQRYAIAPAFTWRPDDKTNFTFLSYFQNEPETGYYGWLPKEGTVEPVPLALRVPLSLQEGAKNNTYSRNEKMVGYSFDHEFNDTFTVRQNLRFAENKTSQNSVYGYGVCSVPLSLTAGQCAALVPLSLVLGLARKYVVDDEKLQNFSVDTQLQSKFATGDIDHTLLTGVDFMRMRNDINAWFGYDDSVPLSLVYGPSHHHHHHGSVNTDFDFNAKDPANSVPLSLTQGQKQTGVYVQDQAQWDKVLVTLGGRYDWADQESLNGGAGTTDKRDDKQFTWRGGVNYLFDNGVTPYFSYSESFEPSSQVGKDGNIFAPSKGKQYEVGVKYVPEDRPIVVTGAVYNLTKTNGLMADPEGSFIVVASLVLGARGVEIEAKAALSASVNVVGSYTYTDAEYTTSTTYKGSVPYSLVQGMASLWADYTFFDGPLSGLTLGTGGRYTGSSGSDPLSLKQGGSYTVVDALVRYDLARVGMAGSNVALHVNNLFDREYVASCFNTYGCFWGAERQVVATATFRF

The target of series [6] is T4, native OPRD pseudomonas aeruginosa beta barrel channel polypeptide, expressed with surface antigen D15 signal peptide and a tag.
T4 chain: T2 chain with A398G, S400K, L401N, T402Y, A403G, G404Y

With “human matrix metalloproteases seven (MMP-7, Calbiochem, cat #444270) (from UniProt P09237 95-267) (enzyme)”, the inward ionic current, whole-cell patch clamp of HEK293T cells expressing FhuA7/10-1 after addition of MMP-7 in series [1] is 20000 >=.
For the molecule factor Xa (Novagen, cat#69036-3), the “proteolysis over time, gel bands” value was “incubation of factor X with mutant L8fxa#1 (SEQ ID NO: 22788) shows specific cleavage, since bands “a” and “b” become more apparent with time” with OprD mutant L8fxa#1; “Incubation of Factor X enzyme with the wild type OPRD yields a few non specific bands” in series [2].
Take enterokinase (Novagen, cat#69066-3): the “proteolysis over time, gel bands” value with OprD mutant L8rek#1 was “incubating enterokinase with the mutant L8rek#1 (SEQ ID NO: 22798) shows specific cleavage since band “a” disappears and band “b” becomes more apparent over time”; in series [2], “Incubation of enterokinase with the wild type OprD yields a non specific band, that does not increase over time”.

B1: human matrix metalloproteases seven (MMP-7, Calbiochem, cat #444270) (protein)
chain: YSLFPNSPKWTSKVVTYRIVSYTRDLPHITVDRLVSKALNMWGKEIPLHFRKVVWGTADIMIGFARGAHGDSYPFDGPGNTLAHAFAPGTGLGGDAHFDEDERWTDGSSLGINFLYAATHELGHSLGMGHSSDPNAVMYPTYGNGDPQNFKLSQDDIKGIQKLYGKRSNSRKK
Turning to B1, the “proteolysis, gel bands” value in series [3] is recorded as “Incubation of MMP7 with wild type OprD yields a few non specific bands, compared with the control sample held at the same temperature for 24 hours but with out the MMP7”; in series [4], “incubating mmp7 with the mutant L8 mmp7turk#3 (SEQ ID NO: 22836) shows cleavage as the main protein band disappears”. Further, the “cleavage kinetics 0 to 720 min, Western blot and densitometry” value in series [5] was “the amount of uncleaved protein (˜81 kDa, indicated by ‘a’) decreases while the amount of the cleaved one increases (˜57 kDa, indicated by ‘b’); after 12 hours all His-tagged polypeptides (˜81 kDa) completely disappear along with the ˜57- and ˜37-kDa bands”. The “cleavage of membrane-integrated FhuA7/10-1, Western blot with anti-His5” value in series [5] was “Incubation of the membranes with human MMP-7 for 30 minutes at 37 °C resulted in the appearance of ˜57- and ˜37-kDa bands”. For the same molecule, in series [6], the “cleavage, Western blot” value is “the native protein (solubilized in DDM) was not cleaved in the presence of MMP-7 (concentration 0.25 Units per 16 ug of total protein)”.

Source of the values: US20130121915A1.
